Laboratory results: publication PMC8034616
Residue numbers refer to the chain shown, from its start.

Assays:
[1] = test system: T1, H-NS A42 S42A (Shewanella oneidensis MR-1), ORF:b65510ad; assay: EMSA
T1 sequence: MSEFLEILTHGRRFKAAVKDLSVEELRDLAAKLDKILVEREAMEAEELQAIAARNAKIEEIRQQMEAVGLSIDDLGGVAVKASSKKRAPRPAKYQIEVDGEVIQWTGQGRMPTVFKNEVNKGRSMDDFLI

[2] = test system: T2, H-NS A2 S2A (Shewanella oneidensis MR-1), ORF:b65510ad; assay: EMSA
T2 sequence: T1 sequence with S2A, A42S

[3] = test system: T3, H-NS A71 S71A (Shewanella oneidensis MR-1), ORF:b65510ad; assay: EMSA
T3 sequence: T1 sequence with A42S, S71A

[4] = test system: T1, H-NS A42 S42A (Shewanella oneidensis MR-1), ORF:b65510ad; assay: analytical ultracentrifugation
[5] = test system: T2, H-NS A2 S2A (Shewanella oneidensis MR-1), ORF:b65510ad; assay: analytical ultracentrifugation
[6] = test system: T3, H-NS A71 S71A (Shewanella oneidensis MR-1), ORF:b65510ad; assay: analytical ultracentrifugation

Measured: binding

GATTTTCTAGTGACAGAAGGTTTTAGCGTTGATAATGCCAAATATGCTGAATTATTTTTGAGACCGAGTAAATTTCTTAGGGGACCAAAAAAACGCATATAATACAATGGATAATGCAATTTAGGTGAGCAAAGGGGACCGTTTTTACCCCGTTTATTCATGCTTCATAACCATCTAATCTCAGGGTTGTAGACGTTTATTCACAACTCTGAGGACGATTATGAACACAACTCTCAC (double strand) [alpA promoter (PalpA)]
binds: all assays above
